Common to all, as to test: FCPIA (flow cytometry protein interaction assay, Luminex beads); Gαo affinities for RGS4Δ51N wild type and mutants on beads, with AMF
For orientation: Flow cytometry measures light scatter and fluorescence of single cells or particles in a stream.

For assay [1], the target named is MBP-RGS4Δ51N A132C in the -7C (UniProt P49799).
For assay [2], the target named is MBP-RGS4Δ51N with no Cys in the C-terminus (UniProt P49799).
For assay [3], the target named is MBP-RGS4Δ51N A148C in the -7C (UniProt P49799).
For assay [4], the target named is MBP-RGS4Δ51N A95C in the -7C (UniProt P49799).
Assay [5] deals with MBP-RGS4Δ51N -7C mutant (all 7 cysteines removed) (UniProt P49799).
The target of assay [6] is MBP-RGS4Δ51N A71C in the -7C (UniProt P49799).
Assay [7] has as its target MBP-RGS4Δ51N with no Cys in the RGS domain (UniProt P49799).

pKd: −log10 of the molar value.

Sequence of Gαo, Alexa Fluor 532-labeled (P59215 whole entry): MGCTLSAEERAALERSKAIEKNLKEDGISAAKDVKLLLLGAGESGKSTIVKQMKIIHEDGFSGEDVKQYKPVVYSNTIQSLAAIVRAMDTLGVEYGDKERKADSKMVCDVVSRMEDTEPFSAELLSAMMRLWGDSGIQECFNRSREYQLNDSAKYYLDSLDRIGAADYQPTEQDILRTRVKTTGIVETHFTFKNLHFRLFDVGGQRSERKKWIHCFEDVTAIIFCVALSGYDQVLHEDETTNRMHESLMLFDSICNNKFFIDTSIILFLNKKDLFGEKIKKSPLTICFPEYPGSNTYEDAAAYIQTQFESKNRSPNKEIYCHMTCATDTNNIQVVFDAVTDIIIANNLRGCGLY

“Gαo, Alexa Fluor 532-labeled (from UniProt P59215 1-354) (natural protein)”: the pKd in assay [1] was 7.90; in assay [2], 8.30; in assay [3], 8.24; in assay [4], 7.92; in assay [5], 8.08; in assay [6], 8.04. Further, in assay [7], the pKd is 8.41.

The term pKd denotes the negative decadic logarithm of the Kd, by convention in mol/L. A low value points to a large Kd.
